Among the data in article PMC2950225 are stoichiometry N values, retold here.

In the assay the target is T1, heat shock factor 1 (human (endogenous in HepG2)), Q00613.
T1 chain: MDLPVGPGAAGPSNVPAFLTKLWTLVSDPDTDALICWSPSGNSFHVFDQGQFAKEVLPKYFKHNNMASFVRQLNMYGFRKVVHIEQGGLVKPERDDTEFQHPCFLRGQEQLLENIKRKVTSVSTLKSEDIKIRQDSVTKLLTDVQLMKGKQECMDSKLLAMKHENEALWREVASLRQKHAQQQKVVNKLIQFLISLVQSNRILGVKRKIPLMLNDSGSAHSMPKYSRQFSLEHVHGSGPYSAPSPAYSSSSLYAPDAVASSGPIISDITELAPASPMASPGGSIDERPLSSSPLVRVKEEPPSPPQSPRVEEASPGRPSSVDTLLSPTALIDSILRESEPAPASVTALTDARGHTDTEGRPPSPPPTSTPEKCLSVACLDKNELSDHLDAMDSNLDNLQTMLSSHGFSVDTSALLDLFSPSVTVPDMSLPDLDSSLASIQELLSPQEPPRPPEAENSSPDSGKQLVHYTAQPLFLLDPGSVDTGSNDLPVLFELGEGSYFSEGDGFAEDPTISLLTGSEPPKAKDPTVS
Briefly: cross-linking. The conditions noted are these: remark: other sources report otherwise.

B1: heat shock factor 1, Q00613 1-529 (natural protein)
chain: MDLPVGPGAAGPSNVPAFLTKLWTLVSDPDTDALICWSPSGNSFHVFDQGQFAKEVLPKYFKHNNMASFVRQLNMYGFRKVVHIEQGGLVKPERDDTEFQHPCFLRGQEQLLENIKRKVTSVSTLKSEDIKIRQDSVTKLLTDVQLMKGKQECMDSKLLAMKHENEALWREVASLRQKHAQQQKVVNKLIQFLISLVQSNRILGVKRKIPLMLNDSGSAHSMPKYSRQFSLEHVHGSGPYSAPSPAYSSSSLYAPDAVASSGPIISDITELAPASPMASPGGSIDERPLSSSPLVRVKEEPPSPPQSPRVEEASPGRPSSVDTLLSPTALIDSILRESEPAPASVTALTDARGHTDTEGRPPSPPPTSTPEKCLSVACLDKNELSDHLDAMDSNLDNLQTMLSSHGFSVDTSALLDLFSPSVTVPDMSLPDLDSSLASIQELLSPQEPPRPPEAENSSPDSGKQLVHYTAQPLFLLDPGSVDTGSNDLPVLFELGEGSYFSEGDGFAEDPTISLLTGSEPPKAKDPTVS
For B1, the stoichiometry N was 3.

A word on the stoichiometry N: it is a count of units in the complex or per binding partner.
